# Laboratory results taken from the DeepSol protein solubility set.
# Test: soluble on expression in E. coli; label from the status in PepcDB or PDB records
row,Sequence,soluble on expression in E. coli
1,MAADESYPSVKERAFFQGLPFDYAVVFDNALIDRLFSRLRQERALVEDGLLARPDHRPWRLGALITEADTLDRRLSEQIRCLSGQSLPVASIALVTATTEAREAVSLWASVTCPPNVVVTPDPRAWMAEADLDLVVVFAPGALAHPGLFAALGRALQRDGADFAVWNHLLVRRRAEAPGQDITYLRCPDPTRQPVALAHMEAAGPAWAATPRLFETIKGDLGKALIGMARHPLSIALLRGKPKVVRLNEFLGACRVDSLGTPPWPRQSALVEAYGAALEDETFRLEIDPAHPTQPIRLTPRRRAHSIDIVINFRDKPELTLAAMGSIYAQTTTARVSLFLIDNQSTPAARAAIDAEAARAPAGIAVRVLSYDRPFNHSAQTNLGAAAGNGEALVFMSNDCALVDPGALDEMAAWALAPGVGTVGVRLETAEGRLACSGICALYPDHDFHPIVAEGFDQLGAGLNRETFANTFACACLARAVFRQAGPLDAIGFPIGLNDVDYCLRLRERGLRHLYLGAFLARHQALGSRPASDDGAQSAFLRQTYGHLLFDKEYMLEYDFLRQFTAAKLRQDIRSQRDKTTTVLEHHHHHH,not soluble
2,MGSDKIHHHHHHMAWLLVGTKKYEDFEKNERVNRWYLNVRARSPISADIWRRSLLRYCTINNTTPEGLLDMAQKGTLKDNFQDFTIRMIAEGRRGAYLAKVKEILHSWIRFNDIDYKIRINIPNERLNETTMDERVPTKEELSKILRMGTVRSRVSVSLMAFSGLRPEVLGNYEGTDGLTLGDIEDLDIDTLTFKNVPAKINVRNGLSKTRLKYFTFLGQEGCGYLKDYLDHRKASGEILKKESALLAPDPGNVQTAHGFLRTALIAREIRKAIRNSNLSMRPYVLRVYFATALDIAESKGSISHPWRQYIMGHKGDIEATYSTNKRLLPETIEGMRSAYLKCTKFFETEEKGIKEEDYQKMLRDSAIDTLTGAFGITLTDDQKEELRNLDTAEYQKRLGEIFKDRKADLLNNGNSQKVIPFKDVEKYIEQGWEYVRDFPGNKAIVRLPS,not soluble
3,MQKKSQTAQSYHPMIKEFPEFYGPLTCPGQFLALLILEFGLNFAEIQKLKWENFNWNFKYLTIEKAGIKRVLPIREKFAIRVKAINNADELFAKSRQFLYTELKKFTNYSSKEIREQYILHQVKAGKSIYELATLLGLTTITTLEKYYRLEHHHHHH,not soluble
4,SLGNSYAGQLKTTRFEEVLHNSIEASLRSNNLVPRPIFSQLYLEAEQQLAALEGGSRVDNEEEEEEGEGGLETNGPPNPFQLHPLPEGCCTTDGFCQAGKDLRLVSISNEPMDVPAGFLLVGVKSPSLPDHLLVCAVDKRFLPDDNGHNALLGFSGNCVGCGKKGFCYFTEFSNHINLKLTTQPKKQKHLKYYLVRNAQGTLTKGPLICWKGSEFRSRQIPASTCSSSLFPALESTAAFPSEPVPGTNPSILMGAQQAGPASDHPSLNAAMGPAVFNGKDSPKCQQLAKNNLLALPRPSALGILSNSGPPKKRHKGWSPESEG,soluble
5,MTSISSEYKLPEKTNTVSTNNSSLGKDEFLKILMTQVQNQDPLNPIDDKEFISQMATFSSLEQMMNLNTTMTQFVENQDPFTTYVDWMGKEVSWTDGKSATDKTGTVSSVKHFKGNYYLVLDDGTEISPANVMSVGQSSKLEHHHHHH,soluble
6,MVSVDPLATERWRSIRRLTDRDSAYKVPWFVPGPENFEALQNTKILVIGAGGLGCELLKNLALSGFRTIEVIDMDTIDVSNLNRQFLFRESDVGKSKAEVAAAFVQQRVVGCQVTAHNCRIEDKGQEFYRKFSIIICGLDSIPARRWINGMLCDLVLEMADGKPDENTIIPMIDGGTEGFKGNARVIYPKFTACIDCTLDLYPPQVNFPLCTIAHTPRLPEHCIEYIKVVVWPEEKPFEGVSLDADDPIHVEWVLERASLRAEKYNIRGVDRRLTSGVLKRIIPAVASTNAVIAASCALEALKLATNIAKPIDNYLNFTQIHGAYTSVVSMMKDDNCLTCSGGRLPFEVSPSSTLESLIIRLSERFHLKHPTLATSTRKLYCISSFMPQFEQESKENLHTSMKDLVSDGEEILVSDEALSRALTLRIQLI,not soluble
7,MGYIVDISKWNGNINWDVAAPQLDFVIARVQDGSNYIDPLYKSYVQAMKTRNIPFGNYAFCRFISIADAKKEAQDFWNRGDKSATVWVADVEVKTMDDMIAGTQAFIDELRRLGAKKVGLYVGHHMYGPFGMANVKSDFVWIPRYGGNKPAYPCDIWQYTETGNVPGIGKCDLNQLIGNKPLSWFTESVPKQENIQAQVSKQNIIQSGAFSPYETPDVMGALTSLKMTATFILQSDGLTYFVTEPTSDTQLNALKSWLDRKGWWYEVK,not soluble
8,MDVSYYDGPKDEVAEAMLKSAVTAMRLGQYEDGKGRLEEIMEFGTSNFQLLGTIYMYYGRVCRHLNHDAKALEFFEHELNMFKLIFNYPEACDSTRRIVEQALKMGKFPKARRFAEDLIDYTSNKKNGEKYIGQARILFASVCLEGCERDVESNQDEKKKLLSICAEQIAAVKLFNENNTEGAVSETKIMLLEAKCLSLDEKYEESRRKYQECIDFAIKTDQFEAVHIAYYDKALYAETDLLFFIIRDLRSALFYATKFGKERDVVKYKSKLSEEMLRNGEFHEAYLYGLEALVSIRKLGLNEYIGDVLLTIAKCLIALGKRRQAAYFIILGSVLTINQNSFKLFYEQIDVAMNQERSETATDQDVCLAIDSSPDPTSSNDMINKFVVELEHATNVETWEMIVNGIIDDQKKPVAIEKKENEEPVDMMDLIFSMSSRMDDQRTELPAARFIPPRPVSSASKKTTKSHRILPGLRANWTKVQSMKFDGHTMNRILKRSKKSKSSLDSTNSMQGDDTRSDDVTMTSK,not soluble
9,MSLGIKVNRLKVEDQILRQFGGNLLLEKDGNRGFIAFIGRGLIDFTERIRILATVSRIKDILFIGTAGSLSNEILIGDLNIPKYAIPFENVSDFYADPTIAIPQADEKLLNEVYEYAEETGVKTHSTLHATLLFPYSETTEFLNYLLNIGVSTIDMEVSAFYKMSRFYGKRAVAVLRISDMPLIELHKQEELIKARREIAVNAVFRITLRFLKLEGHHHHHH,not soluble
10,MVDSYDDSLDGEKSKTQVKRELHALVDLGERLTTLKADVLAKLPLTDALRKALAEAPKHTANIARKRHILFIGKLMRDQDQEAILVLLDQLDASTRQYNERFHNLERWRDRLIAGDDADLEKFVIEYPDADRQQLRSLIRQAQHEVARNKPPATSRKIFKYIRELDELQ,soluble
11,MKKLLFFILILFGVLSVQSLANGCSAQICTCPGGGYVTTGQYCPVYNNNTPSQPVLTKWYAFSYDKNKNIYGVGTGYDKKTAQNEALKNCGTSECKIEKSQKIPGGISLAAVSSNGVMVTYSSFGSSTWEQYEKRIDNLIKKCKAKGGSNCKLVFDSAYLYRKDKNLGY,not soluble
12,MNARLENLMQWLKEKNVEAAFLTSTPNVFYMTNFHCEPHERLLGMFVFQEKEPILICPKMEEGQARNAGWAHEIIGFTDTDRPWDMIAKAIKDRGINANAVAIEKELLNVERYEELTKLFPNAAFTSAEEKVRELRLIKDEKELSILREAAKMADYAVEVGVNAIKEDRSELEVLAIIEHELKTKGIHKMSFDTMVLAGANSALPHGIPGANKMKRGDFVLFDLGVIIDGYCSDITRTVAFGEISEEQTRIYNTVLAGQLQAVEACKPGVTLGAIDNAARSVIADAGYGDFFPHRLGHGLGISVHEYPDVKAGNESPLKEGMVFTIEPGIYVPNVGGVRIEDDIYITKDGSEILTKFPKELQFVK,soluble
13,MLISERFGIKGRADAVRRGMPVELKTGKNLKRSPRFQDKVQAACYGLLLADDIADPPDTGTLLYTKNSALDRSEESGDLSPAKEFSIGPGFLKYVLRVRNEIAAAEYDMSVPTGFEADANCDYCFEQDTCMVVSGRLDQESKAGQLGEPLPEPERAYFERLYRAIEEERREVHAEYRKLWEQSAAERADDDRALVDLDPLGREPLDGGRWALSARRTSDAVSKIREGDRVLASDGHPTQGTAELATVRHLDDEIVVVADEPFELRRIDVYPSELGVDRQLEHHHHHH,soluble
14,MRGSHHHHHHGLVPRGSMIRTMLQGKLHRVKVTHADLHYEAGSCAIDQDFLDAAGILENEAIDIWNVTNGKRFSTYAIAAERGSRIISVNGAAAHCASVGDIVIIASFVTMPDEEARTWRPNVAYFEGDNEMKRTAKAIPVQVA,soluble
15,MGSDKIHHHHHHVARRKEHTHEQIRHMAISAVVEHLQCHGVDNLSLRKVATTIGYVPSTLINIFGSYQYLLLAVSEQTLLQLAAQLQLIKPTTPTKTIEQMAIVYSQFALANRRCFRLVFELTMTDDQPLPAAHLGLIKSLFSDVEFQLSQYFPSACEQEVEMMSRVLWGGIHGLTCLSLDGKLFETQSCLQDMLTSHVSSYIDGMSIKRNSNAAN,not soluble
16,MSDVDADEARKMAERERKKEEVRKRLEEASRMKKAKKGFLTPERKKKLRKLLMMKAAEDLKQQQMLKEQERQRILQERIIPLPDLDNEDDLEAVYDEIRERLIDLESENYDVSYIVRQKDFEINELTIAVNDLRGKFVKPTLKKVSKTEGKFDKLKKKEATKVDFRAQLKVVDKNEFALDEEDTEKKEKAAWAK,not soluble
17,MSLFLDVQGTLISDHDKSLIHGAKELIDFLNAKNLPYLIITNNTKKLDFLEKLQQKGLVIKENAYIDPFSVLKHLLRPCKVAAFGADEFVKSLENLGFELDFVNPSAVLVASYDDFKFKDFATMIELARREVRFIAMHETSIYKKDGRPYPGVGSIMAMLKNAIDFEYEVVGKPSIAFYKEALNLIRRQNSKIDFEDIKIISDDFRGDLLKAKELGMKTLLVLSGKISDTKGLDTDLLDGVYPSVFEFLKDLKCQIEGHHHHHH,not soluble
18,MSAEVQESSGKRGKGKQKKMTVRVDFTPMVDMNMLLITFFMLCTTLSKPQTMEISMPSNDKDITEQQKSMVKASQAITLLLGADNKLYYYEGEPNYKDYTSLKETSYGASGLRAVLLQKNAAAVNQVRALKQQKLDLKITDDEYKKKVSEIKSGKNTPTVIIKATDDASYMNLIDALDEMQICNIGKYVITDIAEADEFLIKNYDAKGELSQNLADK,not soluble
19,MPQQTQTSAEKRCMVTKRIMLKLPDISAASLIPASIEASPAQVLGPASLAGIFPRGVRVYLTDTGAASQEKLVDAATHLRNLGYEPVPHLAARRIPSRVEFEEQVKRLAGEADVTDVLVVGGGVDRPAGPFASSMDMLSSGIFDRYGIKKIAIAGHPEGSPDFSEETAIAALRLKRDFGERSDAAMRIVTQFGFDPARFIAWAEGLAASGIDLPVHIGVSGPAKITTLLKYAALCGVGNSIAYLKKNALSLTTLARGHSPDSIVGPIERHWQANPQGPIRQIHVFPFGGLQNSADWLVSRGSWQTRDAGRPAPADSMAG,not soluble
